assay: yeast display, Sf9 membrane polyspecificity reagent, FACS + sequencing; frameworks hold sequencing errors
In short: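 Synthetic nanobody libraries on Saccharomyces cerevisiae BJ5465 were galactose-induced for 36–48 hours, stained 1 hour at 4 °C with 10% biotinylated, detergent-solubilized Sf9 membrane reagent and enriched on streptavidin microbeads. FACS then separated cells into low and high (top ~1%) gates by anti-HA (expression) and streptavidin (reagent binding) fluorescence. Genes were colony-PCR amplified, MiSeq 2 × 250 sequenced and CDR-length filtered. A clone's polyreactivity label is that of its gate of origin.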

Row | Sequence | polyreactivity (PSR sort gate)
1 | QVQLVETAGGLVQAGGSLRLSSAASRSTFGPYAMGWYSQSPGKERELVAAISRRGTSTYYADSVKGRFTISRDNAKHTVYLQMNSLKPDDTAVYYCNAVTSSFYIRDSDYWGQGNQVTVSS | high polyreactivity
2 | QVQLVESGGGVVQAGGSLRVSCAATGSIYYRSAMGWYRQAPGKERELVAAISVSGGSTYYADSVKGRFTISRDNAKITDYLQMNSLKPEDTAVYYCAAVVRYGYEYWGQGTQVTVSS | high polyreactivity
3 | QVQLVESGGGLVQAGGSLRLSCAASGSIFFLYAMGWYRQAPGKERELVASISRGDSTNYADSVKGRFTISRDNAKNTVYLQMNSLKPEDTAVYYCAAYRLYWPSTARRYDYWGQGTQVTVSS | low polyreactivity
4 | QVQLVESGGGLVQAGGSLRLSCAASGRTFALNAMGWYRQAPGKERELVAAISWSSGRTYYADSVKGRFTISRDNAKNKVYLQMNSLKPEDTAVYYCAALVAHKGDYWGQGTQVTVSS | high polyreactivity
5 | QVQLVETGGGLVQAGGSLRLSCAASGRIFVGYAKGWYRQAPGKERELVAAISARGGSTYYADSVKGRFTISRDNAKNTVYLQMNSLKPEDTAVYYCAADEASSRGYYDYDYWGQGTQVTVSS | low polyreactivity
6 | QVQLVESGGGLVQAGGSLRLSCAASGSIFYLYTMGWYRQAPGKERELVASITYSGGTYYADSVKGRFTISRDNAKNTVYLQMNSLKPEDTAVYYCNAHIPTNRSYVPEVRGEYDYWGQGTQVTVSS | low polyreactivity
7 | QVQLGESGGGLVQAGGSLRVICAASGFIFRDYAMGWYIQAPGKERELFAAIRSTTGSTYYADSVKGRFTISRDNSKNTVYLQMNSLKPEDTAVYYCAAAYPFYADMDYSGQGTQVTVSS | low polyreactivity
8 | QVQLVESGGGLVQAGGSLRLSCAASGSTFVFYAMGWYRQAPGKERELVADITSGGRTSYADSVKGRFTISRDNAKNTVYLQLNSLKPEDTAVYYSAALTRWYAWYDYWGQGTQVTVSS | high polyreactivity
9 | QVQLVESGGGLVQAGGSLRLSCAASGSTFKGTAMGWYRQAPGNERELVAAINRSGTSTYYAHSVKGRFTISRDNAKNTVYLQMNSLKPEDTAVYYCANKYFGHRFDYWGQGTQVTVSS | high polyreactivity
10 | QVQHVESGRGLVQAGGSLRLSCAASGSIFSSYARGWSREAPGKERELVAAISQSGGDTYYADSVKGRFTISRDNAKNTVYLQMKSLKPEDTAVYYCAASVWYYPMDYWGQGTQVTVSS | low polyreactivity
11 | QVQLVESGGGLVQAGGSLRLSCAASGLTFYGYAMGWYRQAPGKERELVAAIRWSGGRTYYADSVKGRFTISRDNAKNTVYLQMNSLKPEDTAVYYCAADYSRYYGGDYWGQGTQVTVSS | low polyreactivity
12 | QVQLVESGGGLVQAGGSLRLSCAASGFTFGYNDMGWYRQATGKVRELVAGIRSGDDTNYADSVKGRFTISRDNAKNTVYLQMNSLKPEDTAVYYCAVGYGDYLYYDYDYWGQGTQVTVSS | low polyreactivity
13 | QVQLVESGGGLVQAGGSLRLSCAASGSIFGAIAMGWYRQAPGKERELVPAITSGGSTNYADSVKGRFTISRDNAKNTFYLQMNSLKPEDTAVYYCAARRRYAKFRYDYWGQGTQVTVSS | high polyreactivity
14 | QVQLVESGGGLVQAGGSLRLSCAASGFIFEWNGMGWYRQAPGKERELVAAITWSGGSTYYADSVKGRFTISRDNAKYTVYLHMNSLKPEDTAVYYCAADFPEYYLPYDYWGQGTQVTVSS | low polyreactivity
15 | QVQLVVSGGGLVQAGGSLRLSCAASGRTFPGNAMGGYRQAPGKERELVASINGRTTRTYYADSVKGRFTISRDNAKNTVYLQMNSLKPEDTAVYYCAADPPGYVYGKRYYWGQGTQVTVSS | high polyreactivity
16 | QVQLVESGGGLVQAGGSLRLSCAASGPIFKRNAMGWYRQAPGKERELVAAISGSGGRTNYADSVKGRFTISRDTAKNTVYLQMNSLKPEDTAVYYCAARANFFGWPKSYYYLGQGTQVTVSS | high polyreactivity
17 | QVQLVESGGGLVQAGGSLRLSCAASGRIFNVYAMGWYRQAPGKERELVAAIRRRGDRTYYADSVKGRFTISRDNAKNTVYLQMNSLKPEDTAVYYCAKSQSAKGGYDYWGQGTQVTVSS | high polyreactivity
18 | QVQLVESGGGIVQAGGSLRLTCAASGRIFAWYAMGWYRQAPWKERELVASITWGGGRTYYADSVKGRFTISRDNAKNTVYLQMNCLKPEVTAVYYCAAYRYKEEAYLGVAQERDYWGQGTLVTVSS | low polyreactivity
19 | QVQLVESGGCSVQAGGSLRLSCAAAGRIFSYYAMGWYRQAPGKERELVAAITSGGRTYYADSVKGRFTISRDNAKTTVYLQMNSLKPEDTAVYYCAVGVRNQYYYWGQGTQVTVSS | high polyreactivity
20 | QVQLVESGGGLVQAGGSLRLSCAASGSIFFYAMGWYRPAPGKERELVAAISWRGGSTYYADSVKGRFTISRDNAKNTVYLQMNSLKPEDTAVYYCAKATRRYDVYTYGYWGQGTQVTVSS | high polyreactivity
21 | QVQLVESGGGLVQAGGIHRLSCPASGIIFYYYAMGWYRHAPGKESELVAAISWSGGSTYYADSVKGRFTISRDNAKYTVYLQMNSLKPEDTAVYYCAAAFSPGWWSRHTYDYDYWVQGTQVTVSS | high polyreactivity
22 | QVQLVESGGGLVQAGGSLRLSCAASGIIFGSYAMGWYRQAPGKERELVAGISRRGDSTYYADSVKGRFTISRDNAKNTVYLQMNSLNPEDTAVYYCAADRYLYFYWWPHVGGSPTYGYWGQGTQVTVSS | high polyreactivity

Row | Sequence | polyreactivity (PSR sort gate)
23 | QDQLVESCGGLVQAGGSLRLICAAYGRIISINAMGWYRQAPVKERELVATISWRGGSTYYADSVKGRFTISRDNAKNTVYLQMNSLKPEDTAVYYCKKVFSERWARYFRYDYWVQGTQVTVSS | high polyreactivity
24 | QVQLVESGGGLVQAGGSLRLSCAASGRTFRGYVMGWYRQAPGKERELVAAISKSGGSTYYADSVKGRFTISRDNAKNTVYLQMNSLKPEDTAVYYCAKNYRYYVFYDGFDYWGQGTQVTVSS | low polyreactivity
25 | QVQLVESGGGLVQAGGSLRLSCAASGSTFVRNAMGWYRQAPGKERELVARISSSGGRTSYADSVKGRFTISRDNAKNTVYLQMNSLKPEDTAVYYCNARHYYIWWRSPTRTAMNYWGQGTQVTVSS | high polyreactivity
26 | QVQLVESGGGLVQAGGSLRLSCAAYGSIFSYNAMGWYRPAPGKERELVAAITKSGGRTYYADSVKGRFTISRANAKNTVYLQMNSLKPEDTAVYYCNARSGSQYDYWGQGTQVTVSS | high polyreactivity
27 | QVQLVESGGGLVQAGGSLRLSCAASGRTLVHYAMGWYRQAPGKERELVAAISYSGGRTYYADSVKGRFTISRDNAKNTVYLQMNSLKPEDTAVYYCAAEIVYPAIGGYGYWGQGTQVTVSS | low polyreactivity
28 | QVQLVETGGGLVHAGGSLRLSCAASGSILRPNAMGWYRQAPGKERELVAAITTSGGSTYYADSVKGRFTISRDNAKNTVYLQMNSLKPEDTAVYYCAAEYVYYYYLYLYYYWGQGTQVTVSS | high polyreactivity
29 | QVQLVESGGGLVQAGGSLRLSCAASGSIFRSNDMGWYRQAPGKERELVARITSSVGSTYYADSVKGRFTISRDNAKNTVYLQMNSLKAEDTAVYYGAKRYYHYPYGYRDYDYWGQGTQVTVSS | low polyreactivity
30 | QVQLVESGGGLVQAGGSLRLSCAASGSIFRKNAMGWYRQAPGKERELVAAITGTGRTTYADSVKGRFTISRDNAKNTVYLQMNSLKPEDTAVYYCAAEYYYRYSYTNEGDYWGQGTQVTVSS | low polyreactivity
31 | QVQLVESGGGLVQAGGSLRLSCAASGRILWSYAMGWYRQAPGKERELVASISGRGGSTYYADSVKGRFTISRDNAKNTVYLQMNSLKPEDTAVYYCAAYRLRFWSMDYWGQGTQVTVSS | high polyreactivity
32 | QVQLVESGGGLVQAGGSLRLSCAASGFTFTENVMGWYRQAPGKEREFVAAITYIGGRTYYADSVKGRFTISRDNAKNTVYLQMNSLKPEDTAVYYCAADWAYYVASYLYYTFDYWGQGTQVTVSS | low polyreactivity
33 | QVQLVDSGGGLVQAGGSLRLSCAASGSTFRLYAMGWYRQAPGKERELVAAISQRGGSTYYADSVKGRFTISRDNAKNTVYLQKNSLKPEDTAVYYCNTDWYRKWGKPYYYWGQGTQVTVSS | high polyreactivity
34 | QVQLVETGGGLVQAGGSLRLSCAASGRIFRGNTMGWYRQAPGKERELVAAITIRGRTYYADSVKGRFTISRDNAKNTVYLQMNSLKPEDTAVYYCAVASAGDNDYGGQGTQVTVSS | low polyreactivity
35 | QVQLVESGGGLVQAGGSLRLSCAASGSTFTIYAMGWYRQAPGTERELVATIRAGGGRTSYADSVKGRFTISRDNAKNTVYLQMNSLKPEDTAVYYCAVYVRPTRYGYWGQGTQVTVSS | high polyreactivity
36 | QFQLVESGGGLVQPGGSLRLSCAASGGIFKRYAIGWYRQAPGKERELVAGISRRSGRTYYADSVKGRFTISRDNAKNTVYLQMNSLKPEDTAVFYCAARGIGGYDYWGHGTQVTVSS | high polyreactivity
37 | QVQLVESGGGLVQAGGSLRLSCAASGRIFAYYLMGCYRQAPGKEREFVAAISWSGGRTYYADSVKGRFTISRDNAKNTVYLQMNSLKPEDTAVYYCNAGRPLWLAYGMDYWGQGTQVTVSS | low polyreactivity
38 | QVQLVESGGGLLQAGGSLRLICAASGRIFTYNAMGWYRQAPGKERELVAAISRRGGTTYYADSVKGRFTISRDNAKNTVYLQMNSLKPEDTAVYYCAALLYYATDDDYWGQGTQVTVSS | high polyreactivity
39 | QVQLQESGDGLVQAGGSLRLSSAASGTIFSDYGMGGYRQAPGKERELLAGISDGCNTNYTDSVKGRFTISRDNAHRVSADEQPETGGYRGVLLRGSERWLLFYVYWGQGTQVTVSS | high polyreactivity
40 | QVQLVESGGGLVQAGGSLRLSCAASGFTFGAYAKGWSRQAPGKEWELVASISWSGTSTYYADSVKGRFTISRDNAKNTVYLQMNSLKPEDTAVYYCAAGYRSTRYDYWGQGTQVTVSS | high polyreactivity
41 | QVQLVESGGGLVQAGGSLRLSCAASGRTFYRYAMGWYRQAPGKERELVATISSSGRTYYADSVKGRFTISRDNAKNTVYLQMNSLKPEDTAVYYCRFTIKHGSWGQGTQVTVSS | high polyreactivity
42 | QVQLVESGGGLVQAGGSLRLSCAASGSIFDDYAMGWYRQAPGKERELVAAITSGGSTYYADSVKGRFTISRDNAKNTVYLQMTSLKPEDTAVYYRATRYHWSSTFAPVGAGRGGDSWGQGTQVTVSS | low polyreactivity
43 | QVQLVESGGGLVQARGSLRLSCAASGSIFLYYAMGWYRQAPGKEREFVAAISIIGGSTYYADSVKGRFTISRDNAKNTVYLQMNSLKPEDTAVYYCAADYYYHRWTSVEGGYWGQGTQVTVSS | low polyreactivity

Reference: the nanobody polyreactivity screen of Harvey et al. (2022)
